This note sets out measurements from US9566335.

In assay [1] the target is biotinylated peptide X-…(biotin), X = F. As to the kind of experiment: phage ELISA, biotinylated peptide on neutravidin; phage 10×.
The target in assay [2] is biotinylated peptide X-…(biotin), X = Y. Described as above.
The target of assay [3] is biotinylated peptide X-…(biotin), X = F. As to the kind of experiment: phage ELISA, biotinylated peptide on neutravidin. (ELISA stands for enzyme-linked immunosorbent assay.)
Assay [4] addresses biotinylated peptide X-…(biotin), X = Y. Put plainly: phage ELISA, biotinylated peptide on neutravidin.

In the case of “Phage displayed wild-type E. coli ClpS (truncated wildtype ClpS polypeptide, FLAG-tagged, fused to phage coat protein p3) (from UniProt A7ZJU9 23-106)”, the phage ELISA signal (A450) in assay [1] stood at 1.81; in assay [2], 1.08; in assay [3], 1.81; in assay [4], 1.08.
